Legend:
[1] = target: anti-IL-13 IgG4 variant VH Y98L (human (humanized antibody)); test: SPR
[2] = target: human IL-13 (Homo sapiens) (UniProt P35225); test: SPR

Kd [1] | koff [1] | kon [1] | kon [2] | Kd [2] | koff [2] | Substance
75.3 pM | 8.76e-05 s⁻¹ | 1.16e+06 M⁻¹ s⁻¹ | – | – | – | human IL-13 (from UniProt P35225 25-146) (ligand)
– | – | – | 2.16e+06 M⁻¹ s⁻¹ | – | – | anti-IL-13 IgG4 (lebrikizumab), parent (antibody)
– | – | – | – | 3320 pM | 0.00331 s⁻¹ | anti-IL-13 IgG4 variant VH Y100Q (antibody)
– | – | – | 2.08e+06 M⁻¹ s⁻¹ | < 10 pM | < 0.0001 s⁻¹ | anti-IL-13 IgG4 variant VH Y97L (antibody)

— PMC6927759
